Test [1] has as its target gp120-A prebound to sCD4 (HIV-1 (A subtype, isolate 92UG031) | human). In words: ITC. For orientation: Isothermal titration calorimetry measures the heat released or taken up as one component is titrated into another.
In test [2] the target is gp120-B prebound to sCD4 (HIV-1 (B subtype, isolate YU2) | human) (UniProt P35961). The test can be described thus: ITC.

Broadly, the Kd is a measure of binding affinity in units of concentration. A higher Kd goes with a looser complex.

UniProt P35961, sequence (P35961 whole entry, looked up): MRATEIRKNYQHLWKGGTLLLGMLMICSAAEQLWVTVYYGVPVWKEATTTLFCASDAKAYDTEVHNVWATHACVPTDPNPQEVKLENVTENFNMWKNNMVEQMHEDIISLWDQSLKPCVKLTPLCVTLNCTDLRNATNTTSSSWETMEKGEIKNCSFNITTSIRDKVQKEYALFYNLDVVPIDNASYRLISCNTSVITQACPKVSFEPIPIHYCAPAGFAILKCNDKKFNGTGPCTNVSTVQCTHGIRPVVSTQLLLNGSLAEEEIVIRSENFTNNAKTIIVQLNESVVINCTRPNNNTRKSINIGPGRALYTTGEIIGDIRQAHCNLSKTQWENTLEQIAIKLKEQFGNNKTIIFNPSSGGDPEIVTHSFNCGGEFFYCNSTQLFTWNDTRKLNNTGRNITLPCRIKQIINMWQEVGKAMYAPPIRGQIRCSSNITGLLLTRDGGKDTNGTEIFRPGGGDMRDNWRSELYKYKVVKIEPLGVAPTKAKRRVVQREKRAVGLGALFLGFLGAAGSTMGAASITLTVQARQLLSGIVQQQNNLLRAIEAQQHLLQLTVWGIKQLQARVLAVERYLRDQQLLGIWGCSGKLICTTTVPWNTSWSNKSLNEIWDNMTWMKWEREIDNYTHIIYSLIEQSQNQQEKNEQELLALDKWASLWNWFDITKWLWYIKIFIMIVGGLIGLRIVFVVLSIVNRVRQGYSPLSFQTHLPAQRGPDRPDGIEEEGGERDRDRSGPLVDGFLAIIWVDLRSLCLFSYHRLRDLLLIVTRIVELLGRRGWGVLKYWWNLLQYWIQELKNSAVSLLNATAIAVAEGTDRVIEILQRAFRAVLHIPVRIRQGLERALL

For the substance Monoclonal antibody 17b, in test [1], the Kd amounted to 0.012 µM. Further, the dH in test [2] is -11.1 kcal/mol.
